The values below come from publication doi:10.1101/2020.08.15.252130.

Common to all, as to experiment: NMR
Series [1] has as its target T1, LS2 RRM1 (Drosophila melanogaster, UniProt Q9W1T4 110-204).
The target of a further series is LS2 RRM2 (Drosophila melanogaster, UniProt Q9W1T4 242-319).
A further series addresses T2, LS2 linker-RRM2 (Drosophila melanogaster, UniProt Q9W1T4 204-325).
T2 sequence: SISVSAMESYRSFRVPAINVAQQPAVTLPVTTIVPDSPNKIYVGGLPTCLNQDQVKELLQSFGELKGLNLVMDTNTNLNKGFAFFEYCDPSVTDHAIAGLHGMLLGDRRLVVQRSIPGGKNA

The target in a further series is LS2 RRM1,2 (Drosophila melanogaster, UniProt Q9W1T4 110-325).
For series [2], the target named is T1, LS2 RRM1. This is another data set of the same source.

Read-outs that look alike come from different tables or passages of the source.

For GGGGAGGAGGGGGGCGUAUGA (structured_RNA) [21-mer G4 RNA], the binding result in the series with LS2 RRM1 [1], with LS2 RRM2, with LS2 linker-RRM2 and in the series with LS2 RRM1,2 was “binds” in each case.

For the molecule GGUGGUGG (structured_RNA) [8-mer], the binding result in the series with LS2 RRM1 [2] was “binds”.

In the case of CGUAUGA (ssRNA) [7-mer (3' end of 21-mer)], the binding result with LS2 RRM2 is on record as “no binding”.

For the molecule GGGUGGUGGAGGGG (structured_RNA) [14-mer], the binding result is reported as “no binding” with LS2 RRM2 and “binds” in the series with LS2 RRM1 [2].
